According to patent US20140087995A1 (published 2014):
Numbered stars: 1 amine (or outer) side, 2 acyl side, 3 side chain; on linkers, the order of the positions; unused ones are H or OH. Bridge positions count the residues as written; N and C are the ends. Side chains are listed from the residue outwards. Ends that are not written are not given here. * marks the point of attachment. C20 diacid = O=C(O)CCCCCCCCCCCCCCCCCCC(=O)*; γGlu = O=C(O)[C@H](CCC(=O)[*:2])N[*:1]

T1: rat calcitonin receptor (rat, UniProt P32214 25-516)
T1 construct: whole, on cells; Used as membranes prepared from BHK tk'ts 13 cells transiently transfected with the rat calcitonin receptor (Assay VIII); also called rCTR; rat calcitonin (a) receptor
T1 sequence (looked up): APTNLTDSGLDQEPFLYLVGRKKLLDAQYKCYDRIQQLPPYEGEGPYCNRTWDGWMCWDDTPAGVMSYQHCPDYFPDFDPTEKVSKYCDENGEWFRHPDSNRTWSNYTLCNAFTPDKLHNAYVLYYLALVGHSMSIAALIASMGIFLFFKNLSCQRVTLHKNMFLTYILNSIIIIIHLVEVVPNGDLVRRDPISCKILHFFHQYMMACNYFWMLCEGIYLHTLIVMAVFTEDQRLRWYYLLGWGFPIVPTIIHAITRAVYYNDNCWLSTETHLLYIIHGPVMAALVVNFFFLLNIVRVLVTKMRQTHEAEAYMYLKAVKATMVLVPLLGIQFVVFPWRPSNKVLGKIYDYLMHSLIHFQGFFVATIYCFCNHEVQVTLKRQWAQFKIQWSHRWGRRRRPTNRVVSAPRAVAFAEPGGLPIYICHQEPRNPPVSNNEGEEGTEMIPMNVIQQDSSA

T2: human calcitonin receptor (human, UniProt P30988 25-474)
T2 construct: whole, on cells; Used as membranes prepared from a BHK tk'ts 13 cell line stably transfected with the human calcitonin receptor (Assay VII); also called hCTR; hCT
T2 sequence (looked up): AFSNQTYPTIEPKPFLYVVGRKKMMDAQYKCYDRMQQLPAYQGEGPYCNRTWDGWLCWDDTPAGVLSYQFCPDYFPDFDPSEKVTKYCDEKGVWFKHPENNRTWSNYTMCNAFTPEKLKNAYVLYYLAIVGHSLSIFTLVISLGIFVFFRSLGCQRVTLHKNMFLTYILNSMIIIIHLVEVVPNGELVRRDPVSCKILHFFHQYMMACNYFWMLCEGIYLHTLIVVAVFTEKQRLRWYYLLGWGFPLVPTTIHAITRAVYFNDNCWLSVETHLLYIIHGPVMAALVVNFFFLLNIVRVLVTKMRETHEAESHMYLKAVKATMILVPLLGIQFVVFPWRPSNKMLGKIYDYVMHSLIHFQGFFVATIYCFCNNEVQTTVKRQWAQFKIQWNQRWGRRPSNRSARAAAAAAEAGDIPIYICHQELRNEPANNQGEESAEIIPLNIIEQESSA

T3: rat amylin receptor (rat calcitonin receptor + rat RAMP 3) (rat, UniProt P32214 25-516; Q9JJ73 23-147)
T3 construct: whole, on cells; Used as membranes prepared from BHK tk'ts 13 cells transiently transfected with rat calcitonin receptor and rat RAMP 3 (Assay VI); also called rAmylin-R; rat amylin 3(a) receptor
T3 sequence (looked up) 1: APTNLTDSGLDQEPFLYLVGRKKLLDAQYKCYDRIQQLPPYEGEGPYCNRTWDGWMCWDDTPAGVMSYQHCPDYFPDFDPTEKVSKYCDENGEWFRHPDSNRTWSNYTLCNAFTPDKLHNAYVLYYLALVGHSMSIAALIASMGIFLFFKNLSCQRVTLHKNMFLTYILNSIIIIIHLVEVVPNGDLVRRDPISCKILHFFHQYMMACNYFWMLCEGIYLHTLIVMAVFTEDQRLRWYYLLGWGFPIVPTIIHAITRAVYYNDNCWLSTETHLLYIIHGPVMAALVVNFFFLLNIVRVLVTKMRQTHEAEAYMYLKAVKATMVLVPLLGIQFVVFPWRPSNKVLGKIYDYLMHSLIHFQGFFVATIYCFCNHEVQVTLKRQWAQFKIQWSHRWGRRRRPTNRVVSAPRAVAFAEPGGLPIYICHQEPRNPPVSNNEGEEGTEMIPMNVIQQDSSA
T3 sequence (looked up) 2: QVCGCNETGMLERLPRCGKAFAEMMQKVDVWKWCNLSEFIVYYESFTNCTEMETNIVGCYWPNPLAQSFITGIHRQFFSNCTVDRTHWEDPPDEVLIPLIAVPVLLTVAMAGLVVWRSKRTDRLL


How the values were obtained:
rat calcitonin receptor [1] = biological target: T1, rat calcitonin receptor; assay: IC50 on rat CTR divided by IC50 on rat amylin receptor (Assays VIII/VI)
[2] = biological target: T2, human calcitonin receptor; assay: IC50 on human CTR divided by IC50 on human amylin receptor (Assays VII/V)
Procedure, shortened: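 IC₅₀ values were derived by one-site competition analysis of SPA counts. Cell membranes (35 ng/μL) with SPA beads were incubated with test compounds for 120 min at 25° C in Hepes buffer, pH 7.4, containing CaCl2, MgCl₂, OA and Tween20.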

rat calcitonin receptor [3] = biological target: T1, rat calcitonin receptor; assay: SPA competition with 125I-calcitonin, membranes of BHK cells with rat CTR (Assay VIII)
[4] = biological target: T3, rat amylin receptor (rat calcitonin …); assay: SPA competition with 125I-rat amylin, membranes of BHK cells with rat CTR + rat RAMP3 (Assay VI)

| Binder | Ratio rCT/rAmylin binding (rat calcitonin receptor [1]) | Ratio hCT/hAmylin binding [2] | IC50 (rat calcitonin receptor [3]) [nM] | IC50 [4] [nM] |
| --- | --- | --- | --- | --- |
| K([γGlu-C20 diacid])CNTATCATQRLANFLRHSSPNFGAIPSSTNVGSHTY-NH2 (disulfide 2-7; N-terminus assumed; SMILES CC[C@H](C)[C@H](NC(=O)[C@H](C)NC(=O)CNC(=O)[C@H](Cc1ccccc1)NC(=O)[C@H](CC(N)=O)NC(=O)[C@@H]1CCCN1C(=O)[C@H](CO)NC(=O)[C@H](CO)NC(=O)[C@H](Cc1c[nH]cn1)NC(=O)[C@H](CCCNC(=N)N)NC(=O)[C@H](CC(C)C)NC(=O)[C@H](Cc1ccccc1)NC(=O)[C@H](CC(N)=O)NC(=O)[C@H](C)NC(=O)[C@H](CC(C)C)NC(=O)[C@H](CCCNC(=N)N)NC(=O)[C@H](CCC(N)=O)NC(=O)[C@@H](NC(=O)[C@H](C)NC(=O)[C@@H]1CSSC[C@H](NC(=O)[C@@H](N)CCCCNC(=O)CC[C@H](NC(=O)CCCCCCCCCCCCCCCCCCC(=O)O)C(=O)O)C(=O)N[C@@H](CC(N)=O)C(=O)N[C@@H]([C@@H](C)O)C(=O)N[C@@H](C)C(=O)N[C@@H]([C@@H](C)O)C(=O)N1)[C@@H](C)O)C(=O)N1CCC[C@H]1C(=O)N[C@@H](CO)C(=O)N[C@@H](CO)C(=O)N[C@H](C(=O)N[C@@H](CC(N)=O)C(=O)N[C@H](C(=O)NCC(=O)N[C@@H](CO)C(=O)N[C@@H](Cc1c[nH]cn1)C(=O)N[C@H](C(=O)N[C@@H](Cc1ccc(O)cc1)C(N)=O)[C@@H](C)O)C(C)C)[C@@H](C)O, Analogue of human amylin; also called compound 60) [N^ε1-[(4S)-4-carboxy-4-(19-carboxynonadecanoylamino)butanoyl]-[Arg17,Pro21,Pro27,His35]-h-amylin] | 122 | 45.2 | 26.3 | 0.215 |
| K([γGlu-C20 diacid])CNTATCATQRLAEFLRHSSPNFGAIPSSTNVGSRTY-NH2 (disulfide 2-7; N-terminus assumed; SMILES CC[C@H](C)[C@H](NC(=O)[C@H](C)NC(=O)CNC(=O)[C@H](Cc1ccccc1)NC(=O)[C@H](CC(N)=O)NC(=O)[C@@H]1CCCN1C(=O)[C@H](CO)NC(=O)[C@H](CO)NC(=O)[C@H](Cc1c[nH]cn1)NC(=O)[C@H](CCCNC(=N)N)NC(=O)[C@H](CC(C)C)NC(=O)[C@H](Cc1ccccc1)NC(=O)[C@H](CCC(=O)O)NC(=O)[C@H](C)NC(=O)[C@H](CC(C)C)NC(=O)[C@H](CCCNC(=N)N)NC(=O)[C@H](CCC(N)=O)NC(=O)[C@@H](NC(=O)[C@H](C)NC(=O)[C@@H]1CSSC[C@H](NC(=O)[C@@H](N)CCCCNC(=O)CC[C@H](NC(=O)CCCCCCCCCCCCCCCCCCC(=O)O)C(=O)O)C(=O)N[C@@H](CC(N)=O)C(=O)N[C@@H]([C@@H](C)O)C(=O)N[C@@H](C)C(=O)N[C@@H]([C@@H](C)O)C(=O)N1)[C@@H](C)O)C(=O)N1CCC[C@H]1C(=O)N[C@@H](CO)C(=O)N[C@@H](CO)C(=O)N[C@H](C(=O)N[C@@H](CC(N)=O)C(=O)N[C@H](C(=O)NCC(=O)N[C@@H](CO)C(=O)N[C@@H](CCCNC(=N)N)C(=O)N[C@H](C(=O)N[C@@H](Cc1ccc(O)cc1)C(N)=O)[C@@H](C)O)C(C)C)[C@@H](C)O, Analogue of human amylin; also called compound 51) | 119 | 37.5 | 62 | 0.523 |

Now from value to binder:

| Ratio rCT/rAmylin binding (rat calcitonin receptor [1]) | Ratio hCT/hAmylin binding [2] | IC50 (rat calcitonin receptor [3]) [nM] | IC50 [4] [nM] | Binder |
| --- | --- | --- | --- | --- |
| 35.8 | 45.5 | 20.8 | 0.581 | K([γGlu-C20 diacid])CNTATCATQRLAHFLRHSSPNFGAIPSSTNVGSHTY-NH2 (disulfide 2-7; N-terminus assumed; SMILES CC[C@H](C)[C@H](NC(=O)[C@H](C)NC(=O)CNC(=O)[C@H](Cc1ccccc1)NC(=O)[C@H](CC(N)=O)NC(=O)[C@@H]1CCCN1C(=O)[C@H](CO)NC(=O)[C@H](CO)NC(=O)[C@H](Cc1c[nH]cn1)NC(=O)[C@H](CCCNC(=N)N)NC(=O)[C@H](CC(C)C)NC(=O)[C@H](Cc1ccccc1)NC(=O)[C@H](Cc1c[nH]cn1)NC(=O)[C@H](C)NC(=O)[C@H](CC(C)C)NC(=O)[C@H](CCCNC(=N)N)NC(=O)[C@H](CCC(N)=O)NC(=O)[C@@H](NC(=O)[C@H](C)NC(=O)[C@@H]1CSSC[C@H](NC(=O)[C@@H](N)CCCCNC(=O)CC[C@H](NC(=O)CCCCCCCCCCCCCCCCCCC(=O)O)C(=O)O)C(=O)N[C@@H](CC(N)=O)C(=O)N[C@@H]([C@@H](C)O)C(=O)N[C@@H](C)C(=O)N[C@@H]([C@@H](C)O)C(=O)N1)[C@@H](C)O)C(=O)N1CCC[C@H]1C(=O)N[C@@H](CO)C(=O)N[C@@H](CO)C(=O)N[C@H](C(=O)N[C@@H](CC(N)=O)C(=O)N[C@H](C(=O)NCC(=O)N[C@@H](CO)C(=O)N[C@@H](Cc1c[nH]cn1)C(=O)N[C@H](C(=O)N[C@@H](Cc1ccc(O)cc1)C(N)=O)[C@@H](C)O)C(C)C)[C@@H](C)O, Analogue of human amylin; also called compound 66) |
| 42.8 | 63 | 18 | 0.42 | K([γGlu-C20 diacid])CNTATCATQRLAHFLRHSSPNFGAIPSSTPVGSNTY-NH2 (disulfide 2-7; N-terminus assumed; SMILES CC[C@H](C)[C@H](NC(=O)[C@H](C)NC(=O)CNC(=O)[C@H](Cc1ccccc1)NC(=O)[C@H](CC(N)=O)NC(=O)[C@@H]1CCCN1C(=O)[C@H](CO)NC(=O)[C@H](CO)NC(=O)[C@H](Cc1c[nH]cn1)NC(=O)[C@H](CCCNC(=N)N)NC(=O)[C@H](CC(C)C)NC(=O)[C@H](Cc1ccccc1)NC(=O)[C@H](Cc1c[nH]cn1)NC(=O)[C@H](C)NC(=O)[C@H](CC(C)C)NC(=O)[C@H](CCCNC(=N)N)NC(=O)[C@H](CCC(N)=O)NC(=O)[C@@H](NC(=O)[C@H](C)NC(=O)[C@@H]1CSSC[C@H](NC(=O)[C@@H](N)CCCCNC(=O)CC[C@H](NC(=O)CCCCCCCCCCCCCCCCCCC(=O)O)C(=O)O)C(=O)N[C@@H](CC(N)=O)C(=O)N[C@@H]([C@@H](C)O)C(=O)N[C@@H](C)C(=O)N[C@@H]([C@@H](C)O)C(=O)N1)[C@@H](C)O)C(=O)N1CCC[C@H]1C(=O)N[C@@H](CO)C(=O)N[C@@H](CO)C(=O)N[C@H](C(=O)N1CCC[C@H]1C(=O)N[C@H](C(=O)NCC(=O)N[C@@H](CO)C(=O)N[C@@H](CC(N)=O)C(=O)N[C@H](C(=O)N[C@@H](Cc1ccc(O)cc1)C(N)=O)[C@@H](C)O)C(C)C)[C@@H](C)O, Analogue of human amylin; also called compound 62) |
| 42.9 | 87.2 | 61.1 | 1.42 | K([γGlu-C20 diacid])CNTATCATQRLAHFLRHSSPNFGAIPSSTNVGHNTY-NH2 (disulfide 2-7; N-terminus assumed; SMILES CC[C@H](C)[C@H](NC(=O)[C@H](C)NC(=O)CNC(=O)[C@H](Cc1ccccc1)NC(=O)[C@H](CC(N)=O)NC(=O)[C@@H]1CCCN1C(=O)[C@H](CO)NC(=O)[C@H](CO)NC(=O)[C@H](Cc1c[nH]cn1)NC(=O)[C@H](CCCNC(=N)N)NC(=O)[C@H](CC(C)C)NC(=O)[C@H](Cc1ccccc1)NC(=O)[C@H](Cc1c[nH]cn1)NC(=O)[C@H](C)NC(=O)[C@H](CC(C)C)NC(=O)[C@H](CCCNC(=N)N)NC(=O)[C@H](CCC(N)=O)NC(=O)[C@@H](NC(=O)[C@H](C)NC(=O)[C@@H]1CSSC[C@H](NC(=O)[C@@H](N)CCCCNC(=O)CC[C@H](NC(=O)CCCCCCCCCCCCCCCCCCC(=O)O)C(=O)O)C(=O)N[C@@H](CC(N)=O)C(=O)N[C@@H]([C@@H](C)O)C(=O)N[C@@H](C)C(=O)N[C@@H]([C@@H](C)O)C(=O)N1)[C@@H](C)O)C(=O)N1CCC[C@H]1C(=O)N[C@@H](CO)C(=O)N[C@@H](CO)C(=O)N[C@H](C(=O)N[C@@H](CC(N)=O)C(=O)N[C@H](C(=O)NCC(=O)N[C@@H](Cc1c[nH]cn1)C(=O)N[C@@H](CC(N)=O)C(=O)N[C@H](C(=O)N[C@@H](Cc1ccc(O)cc1)C(N)=O)[C@@H](C)O)C(C)C)[C@@H](C)O, Analogue of human amylin; also called compound 81) |
